According to US20250250357A1 (NANJING ZAIMING PHARMACEUTICAL, published 2025):
Positions count from the first letter of the chain named. Names may count otherwise.

T1: monkey MSLN on HEK293T-monkey MSLN recombinant cells (monkey)
T1 construct: Full-length precursor as transfected; processing on the cell is not described; also called HEK293-monkey MSLN
T1 chain: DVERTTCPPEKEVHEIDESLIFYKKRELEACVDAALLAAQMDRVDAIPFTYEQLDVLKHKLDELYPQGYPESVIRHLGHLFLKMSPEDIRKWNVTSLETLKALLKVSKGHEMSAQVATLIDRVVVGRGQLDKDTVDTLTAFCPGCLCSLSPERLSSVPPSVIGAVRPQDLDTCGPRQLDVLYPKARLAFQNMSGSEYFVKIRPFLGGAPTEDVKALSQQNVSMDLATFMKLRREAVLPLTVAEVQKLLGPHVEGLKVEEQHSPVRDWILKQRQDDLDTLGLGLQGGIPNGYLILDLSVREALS

B1: F7.44.20-H5 (scFv, not shown: small tags and cut ends)
scFv: EVQLVQSGAEVKKPGASVKVSCKASGYTFTDYNMDWVRQAPGQGLEWMGDINPSTGGTIYNQKFQGRVTMTEDKSTSTVYMELSSLRSEDTAVYYCARRRIGTGYFDVWGQGTTVTVSSGGGGSGGGGSGGGGSEIVLTQSPDFQSVTPKEKVTITCSASSSVISSYLSWYQQKPDQSPKLLIYRTSNLASGVPSRFSGSGSGTDFTLTINSLEAEDAATYYCHQWSSFPYTFGGGTKVEIK
notes: also called S009-F7.44.20 humanized antibody VH1a + VL1
B2: F7.44.20-H9 (scFv, not shown: small tags and cut ends)
scFv: B1 scFv with Q65N, T76A
notes: also called S009-F7.44.20 humanized antibody VH2 + VL1
B3: F7.44.20-H3 (scFv, not shown: small tags and cut ends)
scFv: EVQLVQSGAEVKKPGASVKVSCKASGYTFTDYNMDWVRQAPGQGLEWMGDINPSTGGTIYNQKFNGRVTMTEDKSTSTVYMELSSLRSEDTAVYYCARRRIGTGYFDVWGQGTTVTVSSGGGGSGGGGSGGGGSEIVLTQSPATLSLSPGERATLSCSASSSVISSYLSWYQQKPGQSPRLLIYRTSNLASGIPARFSGSGSGTDYTLTISSLEPEDFAVYYCHQWSSFPYTFGGGTKVEIK
notes: also called S009-F7.44.20 humanized antibody VH1 + VL3
B4: F7.44.20-H11 (scFv, not shown: small tags and cut ends)
scFv: B3 scFv with T76A
notes: also called S009-F7.44.20 humanized antibody VH2 + VL3
B5: F7.44.20-H12 (scFv, not shown: small tags and cut ends)
scFv: B3 scFv with T76A, Q177S
notes: also called S009-F7.44.20 humanized antibody VH2 + VL4
B6: F7.44.20-H16 (scFv, not shown: small tags and cut ends)
scFv: B3 scFv with N65S, T76A, Q177S
notes: also called S009-F7.44.20 humanized antibody VH2a + VL4
B7: F7.44.20-H7 (scFv, not shown: small tags and cut ends)
scFv: B3 scFv with N65Q
notes: also called S009-F7.44.20 humanized antibody VH1a + VL3
B8: F7.44.20-H8 (scFv, not shown: small tags and cut ends)
scFv: B3 scFv with N65Q, Q177S
notes: also called S009-F7.44.20 humanized antibody VH1a + VL4
B9: F7.44.20-H4 (scFv, not shown: small tags and cut ends)
scFv: B3 scFv with Q177S
notes: also called S009-F7.44.20 humanized antibody VH1 + VL4
B10: F7.44.20-H15 (scFv, not shown: small tags and cut ends)
scFv: B3 scFv with N65S, T76A
notes: also called S009-F7.44.20 humanized antibody VH2a + VL3
B11: F7.33.24-H3 (scFv, not shown: small tags and cut ends)
scFv: EVQLVQSGAEVKKPGASVKVSCKASGYTFTSYWMHWVRQAPGQRLEWMGNVNPSNGGSNYNEKFKNRVTITVDKSASTAYMELSSLRSEDTAVYYCAPHYIGSRPGFAYWGQGTLVTVSSGGGGSGGGGSGGGGSDIVMTQTPLSLSVTPGQPASISCKASQNVGTNIAWYQQKPGQSPQALIYSASYRYSGVPDRFSGSGSGTDFTLKISRVEAEDVGVYYCQQYNSYPLTFGGGTKVEIK
notes: also called S009-F7.33.24 humanized antibody VH1 + VL3
B12: F7.33.24-H6 (scFv, not shown: small tags and cut ends)
scFv: B11 scFv with N55S
notes: also called S009-F7.33.24 humanized antibody VH1a + VL3
B13: F7.33.24-H11 (scFv, not shown: small tags and cut ends)
scFv: B11 scFv with R44G, G56A, Q172L
notes: also called S009-F7.33.24 humanized antibody VH2a + VL2
B14: F7.33.24-H9 (scFv, not shown: small tags and cut ends)
scFv: B11 scFv with R44G
notes: also called S009-F7.33.24 humanized antibody VH2 + VL3
B15: Tab110 (scFv, not shown: small tags and cut ends)
scFv: QQQLEESGGGLVKPEGSLTLTCKASGFDLGFYFYACWVRQAPGKGLEWIACIYTAGSGSTYYASWAKGRFTISKASSTTVTLQMTSLAAADTATYFCARSTANTRSTYYLNLWGPGTLVTVSSGGGGSGGGGSGGGGSDVVMTQTPASVSEPVGGTVTIKCQASQRISSYLSWYQQKPGQRPKLLIFGASTLASGVPSRFKGSGSGTEYTLTISDLECADAATYYCQSYAYFDSNNWHAFGGGTEVVV
notes: also called YP218 VH-(G4S)3-VL-his antibody; positive control
B16: F7.33.24-H1 (scFv, not shown: small tags and cut ends)
scFv: EVQLVQSGAEVKKPGASVKVSCKASGYTFTSYWMHWVRQAPGQRLEWMGNVNPSNGGSNYNEKFKNRVTITVDKSASTAYMELSSLRSEDTAVYYCAPHYIGSRPGFAYWGQGTLVTVSSGGGGSGGGGSGGGGSDIVMTQSPDSLAVSLGERATINCKASQNVGTNIAWYQQKPGQSPKALIYSASYRYSGVPDRFSGSGSGTDFTLTISSLQAEDVAVYYCQQYNSYPLTFGGGTKVEIK
notes: also called S009-F7.33.24 humanized antibody VH1 + VL1
B17: F7.33.24-H4 (scFv, not shown: small tags and cut ends)
scFv: B16 scFv with N55S
notes: also called S009-F7.33.24 humanized antibody VH1a + VL1
B18: F7.33.24-H10 (scFv, not shown: small tags and cut ends)
scFv: B16 scFv with R44G, G56A
notes: also called S009-F7.33.24 humanized antibody VH2a + VL1
B19: F7.33.24-H7 (scFv, not shown: small tags and cut ends)
scFv: B16 scFv with R44G
notes: also called S009-F7.33.24 humanized antibody VH2 + VL1

Molecular target: T1, monkey MSLN on HEK293T-monkey MSLN …
Assay: FACS, HEK293T-monkey MSLN cells

Row | EC50 [nM] | Maximum_MFI [MFI] | Binder
1 | 4.55 | 7780 | B1
2 | 8.05 | 7460 | B2
3 | 7.34 | 7000 | B3
4 | 3.74 | 7210 | B4
5 | 10.3 | 6670 | B5
6 | 12.2 | 5980 | B6
7 | 9.24 | 6130 | B7
8 | 7.09 | 6320 | B8
9 | 10.4 | 6450 | B9
10 | 4.47 | 8090 | B10

The binders below were run against T2, human MSLN-R3 on HEK293T-hMSLN-R3 recombinant cells (human, UniProt Q13421 487-606) (assay: FACS, HEK293T-hMSLN-R3 cells).
T2 construct: the C-terminal limit is uncertain; also called human MSLN-R3 membrane protein
T2 sequence (Q13421 495-614): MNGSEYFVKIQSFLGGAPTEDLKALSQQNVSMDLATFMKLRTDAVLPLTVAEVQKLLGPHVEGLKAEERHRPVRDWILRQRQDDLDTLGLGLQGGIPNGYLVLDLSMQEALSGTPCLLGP

Row | EC50 [nM] | Maximum_MFI [MFI] | Binder
11 | 2.89 | 1970 | B11
12 | 1.01 | 1540 | B12
13 | 0.42 | 1590 | B13
14 | 1.29 | 1470 | B14
15 |  | 461 | B15
16 | 2.55 | 2190 | B16
17 | 2.15 | 1960 | B17
18 | 1.1 | 1560 | B18
19 | 1.61 | 1650 | B19

What follows are binders tested against T3, human MSLN-hFc recombinant protein (human, UniProt Q13421 296-580) (assay: SPR (Biacore 8K), MSLN-hFc captured, antibody injected).
T3 construct: Captured by an anti-human IgG antibody on the chip; also called human MSLN protein; Acro MSN-H5253
T3 sequence (Q13421 other isoform, or with tags, fused parts or gaps): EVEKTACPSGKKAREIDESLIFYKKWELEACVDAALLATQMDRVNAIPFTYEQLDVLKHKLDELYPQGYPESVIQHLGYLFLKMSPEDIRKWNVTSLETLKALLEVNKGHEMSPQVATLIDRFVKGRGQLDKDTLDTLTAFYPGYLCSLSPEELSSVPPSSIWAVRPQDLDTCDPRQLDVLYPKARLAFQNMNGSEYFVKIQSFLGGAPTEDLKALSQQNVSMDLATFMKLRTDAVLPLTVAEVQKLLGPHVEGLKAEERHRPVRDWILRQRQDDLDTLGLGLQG

Row | Kd [nM] | koff [s⁻¹] | kon [M⁻¹ s⁻¹] | Binder
20 | 0.709 | 0.000313 | 442000 | B1
21 | 0.464 | 0.000208 | 449000 | B2
22 | 1.85 | 0.000679 | 367000 | B6

Molecular target: T2, human MSLN-R3 on HEK293T-hMSLN-R3 …
Assay: FACS, HEK293T-hMSLN-R3 cells
Remark: another data set of the same source

Row | EC50 [nM] | Maximum_MFI [MFI] | Binder
23 | 0.94 | 1700 | B1
24 | 1.67 | 1560 | B2
25 |  | 461 | B15
26 | 1.57 | 1490 | B3
27 | 1.14 | 1680 | B4
28 | 2.88 | 1410 | B5
29 | 2.23 | 1440 | B6
30 | 2.12 | 1510 | B7
31 | 1.95 | 1650 | B8
32 | 2.64 | 1470 | B9
33 | 0.91 | 1500 | B10

The binders below were run against T4, human MSLN on OVCAR3 tumor cells (human, UniProt Q13421 296-598) (assay: FACS, OVCAR3 cells).
T4 construct: whole, on cells; also called human MSLN protein
T4 sequence (Q13421 other isoform, or with tags, fused parts or gaps): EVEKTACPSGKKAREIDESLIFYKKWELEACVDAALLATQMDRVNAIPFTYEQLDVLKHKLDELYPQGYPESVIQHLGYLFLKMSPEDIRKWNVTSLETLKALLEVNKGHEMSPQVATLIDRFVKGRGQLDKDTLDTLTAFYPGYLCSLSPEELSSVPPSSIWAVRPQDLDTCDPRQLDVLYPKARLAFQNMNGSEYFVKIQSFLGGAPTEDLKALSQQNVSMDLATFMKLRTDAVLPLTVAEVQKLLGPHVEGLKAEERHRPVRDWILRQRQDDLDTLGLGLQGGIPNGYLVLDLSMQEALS

Row | EC50 [nM] | Maximum_MFI [MFI] | Binder
34 | 1 | 1960 | B1
35 | 1.61 | 2220 | B2
36 | 0.69 | 1810 | B3
37 | 0.61 | 1950 | B4
38 | 1.5 | 2100 | B5
39 | 1.66 | 1650 | B6
40 | 1.11 | 1840 | B7
41 | 1.04 | 1880 | B8
42 | 1.26 | 1680 | B9
43 | 1.77 | 1930 | B10

Molecular target: T1, monkey MSLN on HEK293T-monkey MSLN …
Assay: FACS, HEK293T-monkey MSLN cells
Remark: another data set of the same source

Row | EC50 [nM] | Maximum_MFI [MFI] | Binder
44 | 5.33 | 8310 | B11
45 | 3.54 | 8440 | B12
46 | 1.46 | 8580 | B13
47 | 4.08 | 8080 | B14
48 | 4.16 | 9050 | B16
49 | 5.23 | 9380 | B17
50 | 3.94 | 8620 | B18
51 | 5 | 8820 | B19

Molecular target: T4, human MSLN on OVCAR3 tumor cells
Assay: FACS, OVCAR3 cells
Remark: another data set of the same source

Row | EC50 [nM] | Maximum_MFI [MFI] | Binder
52 | 2.06 | 2370 | B11
53 | 1.08 | 2300 | B12
54 | 2.25 | 2130 | B13
55 | 2.6 | 2190 | B14
56 | 1.05 | 2180 | B16
57 | 3.04 | 2230 | B17
58 | 3.04 | 2090 | B18
59 | 2 | 2190 | B19
